# Test: soluble on expression in E. coli; label from the status in PepcDB or PDB records
row,Sequence,soluble on expression in E. coli
1,MSYYHHHHHHDYDIPTTGNLYFQGAMVAISFRPTADLVDDIGPDVRSCDLQFRQFGGRSQFAGPISTVRCFQDNALLKSVLSQPSAGGVLVIDGAGSLHTALVGDVIAELARSTGWTGLIVHGAVRDAAALRGIDIGIKALGTNPRKSTKTGAGERDVEITLGGVTFVPGDIAYSDDDGIIVV,soluble
2,MSYYHHHHHHLESTSLYKKAGSENLYFQGARDQGADEAREYEPGQPGMYELEFPAPQLSSSDGRGPVLVHALEGFSDAGHAIRLAAAHLKAALDTELVASFAIDELLDYRSRRPLMTFKTDHFTHSDDPELSLYALRDSIGTPFLLLAGLEPDLKWERFITAVRLLAERLGVRQTIGLGTVPMAVPHTRPITMTAHSNNRELISDFQPSISEIQVPGSASNLLEYRMAQHGHEVVGFTVHVPHYLTQTDYPAAAQALLEQVAKTGSLQLPLAVLAEAAAEVQAKIDEQVQASAEVAQVVAALERQYDAFIDAQENRSLLTRDEDLPSGDELGAEFERFLAQQAEKKSDDDP,soluble
3,MTAALPDLSFHPAWHAQLELAYARAGDATRPVTRRHAGPLRVQKHLYAEGPEVCQHILVHPPGGIAGGDSLAFDVRLGERAWAQLTSPGAAKWYRAACPARQTLEIHLEPGATLEWLPQESIVFAGAQAELETRIQLRGDARLFYWDMVALGRPASGERFASGHFVAALDIRRDDRLLWHERQRIDGGDRLLDSPIGLAGHPVLATLVASGEIDTDLLQRCRALPCAGRGNLSQLPGGLLVARCLADEALHARAWLIELWRLLRPALLGREAVPPRIWSTLEHHHHHH,not soluble
4,MTADSCNPCLTLENTIDVQEVPMTKSVVLADPRGFCAGVDRAILTVQTILKAAEASGKRTREDGLPPVYVRRQIVHNKHVVEDLAGQGAVFVQELAEIPDAAAQAGIPVVFSAHGVSPVVKAEAERRGMHVVDATCPLVGKVHREVLRFVREGYEIVYIGHKGHDEAVGVVGESPEHVHLIEHESDVDSLDFAPDTKLVLLSQTTLSVDETADTIAALKAKFPWIQEPPSSDICYATSNRQAAVKLVAQQSDCVVIVGSANSSNSVRLMEVAQEGLGERGKAYRVDDASELDPAWFEGLESVGISSGASVPDELVSGVIDALQNLGFTGMKSVETIKENMHFVLPAELRRKKLEHHHHHH,soluble
5,MTAETNYFWLNCGYNRWNHNEPLVGQTALFESGAHFNPSQGFRAFKKAKVGDQVIFYQVQTDTGLLGCGEIISVETGAQNKIRVQFRFNEQLKPLTADYLKRSEALEFRMSNMKETLFNQITAEEFDLISGLGKGEIKIPRYFFLAETEEFEPGNQYTIYTHTYNGIKRNGYHFYTQLEEGDNIIFYNRTKNQSVVGIGEVSKHIHEKPPIPGRTNSTVIEVSYEKDITPITLSTLNKHPKLKNLYFLQENAKQAIASMSQAQYDAIIEMSDNNGLKSPFEMVKKPDMLESEKEEALKPFILLVVDRKEEGLKAANDLLQKANANPVITTGHPDFSEDMLYGKYLPNETGALYYREGFITQLMPKKDKSYLVIDNFNRIDTDIFQTYINVLEGYEVTLPRYNKDGNMIKWSRQKDSFYYFNPNWHIVGITYDSLEEIKEKYSEQFLKYTRIVKVKHD,not soluble
6,MTCLSRDWATAQRLVEWALASTRCECFNVDSNFMAGLCLVENPTKQHYSFEVRKQVVDRFNAGQSKMDLAREFGLSSDQLVSSWVRAWRAGGDEALRPKPKGRPKGSASSKPLTEEDRLRREVEKLRAENAYLKKLRDLRNQRRSLEHHHHHH,soluble
7,MTDARTTVVVITHNRCAEVLRTLDRLAELPERPAVIVTDNGSTDGTAAAVARHHPGVRLLRSGRNLGAVGRNLAVRQVTTPYVAFCDDDSWWAPGSLSGAADLLDRYPAVGSVTARILVEPEGTEDPIVEELRDSPVPRPDWLPGPALGSFLAAATVLRTDAFRAAGGFHPRLWLGGEEELLAADLAANGWWLTYAGQLTIHHHPSGVRDSTVRRSHGIRNTLWFTWLRRPVGPALRRTLHLARTVPRDTASLRAFAEATAALPWVLRERRVLPPEVEARLRALEPAQRDSTARSYTGLEHHHHHH,not soluble
8,MTDFFRFPNTPHLLWLGQGQPRDDKILSDAEIAALLQDEVLIEEKLDGANLGISLDEHGELRAQNRGQYLPQPFSGQFSRLNSWLGQHGEILKHTLTPEMILFGEWCAARHSLDYNKLPDWFLLFDVYDREAGKFWSVERRNQLAQKLNITTVPLLKRTKITCNQLVQLLDDAQSRYRSGKVEGIVIRCDSPLWCESRAKLVNREFVQAIEDHWRSRSIEWNLVHAGSVKRS,not soluble
9,MTDFQKQFFARLHIEEKDTVSFEDLSNIMYAMAQTVPFENLNILEKNFKEISKENLKEKILVNNRGGLCYELNPTMYYFLKDSGFDVHLVSGTVYNAANSIWAVDSGHIATVLTHHNELYLIEVGFGSYLPLAPVPFLGEVIHSATGDYRIRKEMTEKGNYILEMRKNNEFLDQSAADDWTLGYAFYIEEVDEEKANTAQKIIVEHEGSPFNKVPLIVKLTEDGHASLTKDSLTVAKNGKKTKETVTDMQYTNLLHSKFGITL,not soluble
10,MTDFSRTFSGTPSAVLPTANRFFRPPLPSAHVARPRLCRRLRDGLDGRLLLIAAPAGFGKSSLAIEFCESLDPRWQSLWLGLSSRESDPGRFLERLLDGLRQYHPTLGEEALGLLKMRQRHQPFAFETWLDDLLDELAPCLDPQRPLLLVLDDYHLAQGAVLDRCLQFLLNHLPEGLVLLVTSRQRPDWHLARLRLSRQLLELSEQDLRLTAEESGALMAASGLELDEDALDALLERSEGWVAGLRLWLLARGDPEEQVSPGVHGADELIRDYLLEEVIERQPPEVQAFLAQTARFERFCAELCDTVREAGDSAAILDHLQQHQVFLVPLDENGQWFRYHHLFSDLLLARPLPDFGPSAGSLHLRACGWFSRHGLLDQAVEQALRAGQPDVAASLVQNLSEEQLLAEQNIATLLRWKMDLPDSLLASTPRLILLYGWALALACQLDAAEELAGQLARFLPAPDESAQRDLLAQWQALSGVIARGRGDIDKAEAHCREALQDLAGERYGTRLQCLSTLSNLAVTRGDFWQA,not soluble
11,MTDQRRNVYFFHKQDQETNEQARSLTQLAEEHGFTVVNQHSDANIIASIGGDGTFLQAVRKTNFRDDCLYVGITKKGKAHLYCDFHSDEREKMVDAMTFEQIEVRKYPLIEVTVDQASPFHCLNEVSIRSSIIKTFVMDVLIDDLHFETFRGDGMIISTPTGSTAYNKSVAGAVVDPLLPCMQVSELASLNNNTYRTLGSPFVLSSDRKLTLRVVQDGNEHPIIGLDNEALSTRNVKTIEIKLSNKKIKTVKLKDNSFWEKVKRTFLLEHHHHHH,not soluble
12,MTDSTTLYPVFAEELLPGGGHRSFILKRGELLRLTDLNGNANVSLTLLNAHEKTERLNLPDSLKCQHTAKLSNGHCLYSDMGRVLAAIVTDTCGWSDSIGGVLNAQEVAEKYGQGRYQELRNGFFRNGVDNLLVELGKWGLGLSDLLMTLNLFSRVDVSETGTLHFAPNNSKAGDYIELYAPMDTLVVLTALQHPMDPNPDYVPQPLTLSWMKADASVAEHCRTSRPENERGFINTDRLFALEHHHHHH,soluble
13,MTDTHAHLDFLEPEELAEAAAHLPKLRAVLTLGVDPGRWEKTLSLAQGNVYAAVGLHPTSAHLLSPRWRRPFRHYARSERVRAIGETGLDYYWTPETRAVQLKALDFQAALAEALGLPLVLHVRSKDGKAEEDLAAWLLLHRPKRAVLHAFSGHPALEAAGLEVGAYFSFAGPLTYRKNAALREAAARLPEDRLLVETDTPFLPPEPFRGKRNRPHYVRFTLEKLAEARGLPFAEAEALTDRNARVCFGWP,soluble
14,MTDTNSQWIEMNLQRQRKMLEDKQKQKRHQSAGSVRTTSTAMSMNSMKDYPTFDNSLPFSISDNSSVSVSMNTPLIPTQDPIAQPRMQSMPRQQPQQVQESLISIGDYPDNDINAKLSKVNLTSCVVSDDEDEDKRSYADSPWNTDVVADRIPSEVLPDYNFIKNNLAKFVEDPAVEHCLYKCSITRQKSGVDKGMFPTYFLHLEEFDTDKRQKIFLLAARKRKKSTTANYLLSTDPTNLSREGEGYCAKVRSNALGTQFTVYDSGQNPKKTTNHAAIRQELAAVIYETNVLGFKGPRKMTIVMPGIEPPTENRPAVRCPVRPIQDKHTLLERYRLNDLDSLKILSNKSPQWNDETQSYVLNFHGRVTQASVKNFQIIHQSSPEYIVMQFGRISDDEFTMDFRYPLSAVQAFGIAMTSFHGKLACE,not soluble
15,MTDTRVLAVANQKGGVAKTTTVASLGAAMVEKGRRVLLVDLDPQGCLTFSLGQDPDKLPVSVHEVLLGEVEPNAVLVTTMEGMTLLPANIDLAGAEAMLLMRAGREYALKRALAKFSDRFDVVIIDCPPSLGVLTLNGLTAADKAIVPLQCEMLAHRGVGQFLRTVADVQQITNPNLRLLGALPTLYDSRTTHTRDVLLDVADRYDLQVLAPPIPRTVRFAEASASGSSVMAGRKNKGAVAYRELAQALLKHWKTGRPLPTFTVDL,soluble
16,MTDYDDYEDRSGVVEEELLDFDRAMLDFQAMFPSLSNSHIEYVLRKYDGDVSATINELLYDNTPTTTTSESIPHGGDLTKLRQRRHEINEKLRENQKFLDTVTDVEIARAYEDQQLALLLEHREVNTLISEEKKKKSCSDSSSIQESRRHVKIPGKNSKNSKISVNKAKKLEPRRRSDEDRVPDGPYIGEGEVKSENFAAKIKETLRKASGSRISRLFSAP,not soluble
17,MTEASIKLGTTSDKLEYEVIDKGSNGFLGIGSRDAVIKVKKAEASVEDEIREFLDSVFKAMKLEVTIDIKVDEDNRNVDVELNGPEMGVLIGKRGQTLDSLQYLTNLAINKQSENYYRVKIDTEDYRKRRRETLENLAKNISFKVKRTKRPVSLEPMNPFERRVIHSALQNDRFVETHSEGDEPYRHVVVTLKK,not soluble
18,MTEHPRAHTAHLRTARLELTPLDPAADARHLHHAYGDEEVMRWWTRPACADPAETERYLTSCAAAPGARLWTIRAPDGTVPGMAGLLGGTDVPGLTWLLRRDSWGHGYATEAAAAVVGHALEDGGLDRVEAWIEAGNRRSLAVAARVGLTERARLAQHYPHRPGPHEMVVLGKARAEEPLTTLAVITELPVRDVAATLRLVEAALGARTAFAIGDPPEFAEAALTPWSAGPRFRLAAVPGPGPVEPVRLHLDAAGTADSLHRRAVDAGARVDGPPVRRPWGRSEFVITLPEGHELTVSAPV,soluble
19,MTEISPKILETSSEPPPKKKRANFTLEFKNEVIRFAEQTNNCQAQKKYGVARACIQRWRHLKHELAFESEGKQGAKRLGGAGRPLKNVELDEKVEDWIASKNGKISGKDIKEYAKKINGNADFKASNGWLQRFMIRHGLIKARSSSPKTPSTSDGTTDKTLEESLFELINSDEWKNISEGNVSGFLEDFNAENGETSLKVEGNNSTTTESEVKQKPNESSKLPEINIFQQLEMLIKDSNGKEDSVEETETSVNRSPKSY,not soluble
20,MTEKKLLMGNEAIAFGAIEAGVQVVTGYPGTPSTEALETIARHAEKCGVYAEWSSNEKVALETAAGAAYSGAKALVTMKQVGLNVASDPLMSLTYIGVKGALVLLVADDPGPHSSQTEQDTRSFGHFANIPVLDPASPQEAYELTKLAFEISHQFEVPVILRTTTRVSHSSGDVELLNSEPSPVEAFC,not soluble
21,MTEKLKNSKEVIAYIAECFPKCFTLEGEAKPLKIGIFQDLAERLNEDEKVSKTQLRAALRQYTSSWRYLHGVKPGAVRVDLDGNPCGELEEEHVEHAKATLAESKAKVQARRKEQAQKAREEGKAKAKPAANKKPQQPRRTNKPKVQKPTKPVETRALNADEITVGNAVNVNMGKGNMAATIVEINKDDVRVQLANGLQMVVKAEHLRA,soluble
22,MTELARLKFYATQPHTCSYLPEEQATTLFLDPSQPMDVQVYADLSDMGFRRSGDHLYRPHCQNCSACVPARIPVNLFVPDRQQKRILKRNADIQVSSAKPVFTQEYFDLYQRYIEQRHADGDMFPPSREQFSTFLVRDLPFSRFYEFRVDQRLLAVAVTDLLPNGLSAVYTFYEPDEERRSLGRYAILWQIGEATRLQLQAVYLGYWIKNCKKMNYKTQYRPIELLTNQRWVTLYLEHHHHHH,not soluble

# Reference: the DeepSol protein solubility set
